Measurements reported in patent publication US20240182549A1, “PEPTIDES AND ANTIBODY FUSIONS THAT BIND TO SARS-COV-2 AND METHODS OF USING SAME” (priority 2021, published 2024).
Ends that are not written are not given here.

How the values were obtained:
S protein ECD [1] = biological target: T1, S protein ECD (Severe acute respiratory syndrome coronavirus 2, UniProt P0DTC2, K986P/R682S/R683S/R685S/V987P)
S protein ECD [2] = biological target: T1, S protein ECD; remark: listed apart in the source
SARS-CoV-2 S protein = SARS-CoV-2 S protein (Severe acute respiratory syndrome coronavirus 2, UniProt P0DTC2, K986P/R682S/R683S/R685S/V987P)

Row | Substance | peptide-phage binding to ECD blocked by NTD-binding antibodies (S protein ECD [1]) | peptide-phage binding to ECD blocked by RBD-binding antibodies (S protein ECD [1]) | binding to S protein ectodomain (in words) (S protein ECD [2]) | affinity improvement over 15033 (SARS-CoV-2 S protein)
1 | p102 (ECWEWSYQLQEWSPCP; not fully specified; cysteine pairing not given here) | not by those that bound to the NTD | blocked | – | –
2 | p16 (DFDFAENWMEQLKVML; not fully specified) | blocked | not by those that bound to the ACE2-binding site of the RBD | did not exhibit detectable binding | significant affinity improvement
